Blank lines part the entries; values can stand above or below the substance they belong to.
Legend:
[1] = target: FcγR on THP-1 cells (FcγRI and FcγRII); assay: flow cytometry on cells; THP-1 cells; ~100 nM IgG pre-complexed with 10 nM CD3ε-BSA (CD3ε peptide 21–47 on BSA) 20 min RT, highly avid; 30 min on ice; goat anti-human IgG PE; median fluorescence intensity
[2] = target: FcγR on THP-1 cells (FcγRI and FcγRII); assay: flow cytometry on cells; THP-1 cells, 100 nM uncomplexed IgG, 30 min on ice, PBSF; goat anti-human IgG R-PE; median fluorescence intensity
[3] = target: ADI-26906 IgG1 LALA-D265A (L234A/L235A/D265A) (human); assay: bead-based flow cytometry (Dynal bead assay); biotinylated CD3ε peptide on streptavidin Dyna Beads, saturated with antibody; beads incubated with C1q alone or with C1q and human complement C3, 25 min RT, PBSF; anti-C1q APC and anti-C3 PE
Sequence of ADI-26906 IgG1 LALA-D265A (L234A/L235A/D265A) (human) (heavy, as listed by the source, chain 1 of 2): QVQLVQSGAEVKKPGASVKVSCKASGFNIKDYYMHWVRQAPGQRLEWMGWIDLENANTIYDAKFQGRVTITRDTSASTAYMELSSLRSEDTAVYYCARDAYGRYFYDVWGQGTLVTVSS
Sequence of ADI-26906 IgG1 LALA-D265A (L234A/L235A/D265A) (human) (light, as listed by the source, chain 2 of 2): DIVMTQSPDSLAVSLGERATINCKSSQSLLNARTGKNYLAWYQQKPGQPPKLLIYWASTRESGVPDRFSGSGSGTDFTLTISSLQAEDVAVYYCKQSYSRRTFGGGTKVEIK

[4] = target: ADI-26906 IgG1 LALE-D265A (L234A/L235E/D265A) (human); assay: as above
[5] = target: ADI-26906 IgG1 L234A/L235A (human); assay: SPR; Biacore 8K or 8K+, 25 °C, HBS-EP+ pH 7.4; IgG captured (400–425 RU) by goat anti-human Fc on CM5; human FcγRI 100 nM injected; response units at one concentration
Sequence of ADI-26906 IgG1 L234A/L235A (human) (heavy, as listed by the source, chain 1 of 2): as the sequence (heavy, as listed by the source, chain 1 of 2) above
Sequence of ADI-26906 IgG1 L234A/L235A (human) (light, as listed by the source, chain 2 of 2): as the sequence (light, as listed by the source, chain 2 of 2) above

[6] = target: ADI-26906 IgG1 L234A/L235E (human); assay: as above
Sequence of ADI-26906 IgG1 L234A/L235E (human) (heavy, as listed by the source, chain 1 of 2): as the sequence (heavy, as listed by the source, chain 1 of 2) above
Sequence of ADI-26906 IgG1 L234A/L235E (human) (light, as listed by the source, chain 2 of 2): as the sequence (light, as listed by the source, chain 2 of 2) above

[7] = target: ADI-26906 IgG1 LALA-A327G (L234A/L235A/A327G) (human); assay: as above
Sequence of ADI-26906 IgG1 LALA-A327G (L234A/L235A/A327G) (human) (heavy, as listed by the source, chain 1 of 2): as the sequence (heavy, as listed by the source, chain 1 of 2) above
Sequence of ADI-26906 IgG1 LALA-A327G (L234A/L235A/A327G) (human) (light, as listed by the source, chain 2 of 2): as the sequence (light, as listed by the source, chain 2 of 2) above

[8] = target: ADI-26906 IgG1 LALA-A330S (L234A/L235A/A330S) (human); assay: as above
Sequence of ADI-26906 IgG1 LALA-A330S (L234A/L235A/A330S) (human) (heavy, as listed by the source, chain 1 of 2): as the sequence (heavy, as listed by the source, chain 1 of 2) above
Sequence of ADI-26906 IgG1 LALA-A330S (L234A/L235A/A330S) (human) (light, as listed by the source, chain 2 of 2): as the sequence (light, as listed by the source, chain 2 of 2) above

[9] = target: ADI-26906 IgG1 LALA-A330S/P331S (L234A/L235A/A330S/P331S) (human); assay: as above
Sequence of ADI-26906 IgG1 LALA-A330S/P331S (L234A/L235A/A330S/P331S) (human) (heavy, as listed by the source, chain 1 of 2): as the sequence (heavy, as listed by the source, chain 1 of 2) above
Sequence of ADI-26906 IgG1 LALA-A330S/P331S (L234A/L235A/A330S/P331S) (human) (light, as listed by the source, chain 2 of 2): as the sequence (light, as listed by the source, chain 2 of 2) above

[10] = target: ADI-26906 IgG1 LALA-D270A (L234A/L235A/D270A) (human); assay: as above
Sequence of ADI-26906 IgG1 LALA-D270A (L234A/L235A/D270A) (human) (heavy, as listed by the source, chain 1 of 2): as the sequence (heavy, as listed by the source, chain 1 of 2) above
Sequence of ADI-26906 IgG1 LALA-D270A (L234A/L235A/D270A) (human) (light, as listed by the source, chain 2 of 2): as the sequence (light, as listed by the source, chain 2 of 2) above

[11] = target: ADI-26906 IgG1 LALA-H268Q (L234A/L235A/H268Q) (human); assay: as above
[12] = target: ADI-26906 IgG1 LALA-K322A (L234A/L235A/K322A) (human); assay: as above
Sequence of ADI-26906 IgG1 LALA-K322A (L234A/L235A/K322A) (human) (heavy, as listed by the source, chain 1 of 2): as the sequence (heavy, as listed by the source, chain 1 of 2) above
Sequence of ADI-26906 IgG1 LALA-K322A (L234A/L235A/K322A) (human) (light, as listed by the source, chain 2 of 2): as the sequence (light, as listed by the source, chain 2 of 2) above

[13] = target: ADI-26906 IgG1 LALA-L309A (L234A/L235A/L309A) (human); assay: as above
Sequence of ADI-26906 IgG1 LALA-L309A (L234A/L235A/L309A) (human) (heavy, as listed by the source, chain 1 of 2): as the sequence (heavy, as listed by the source, chain 1 of 2) above
Sequence of ADI-26906 IgG1 LALA-L309A (L234A/L235A/L309A) (human) (light, as listed by the source, chain 2 of 2): as the sequence (light, as listed by the source, chain 2 of 2) above

[14] = target: ADI-26906 IgG1 LALA-L309V (L234A/L235A/L309V) (human); assay: as above
Sequence of ADI-26906 IgG1 LALA-L309V (L234A/L235A/L309V) (human) (heavy, as listed by the source, chain 1 of 2): as the sequence (heavy, as listed by the source, chain 1 of 2) above
Sequence of ADI-26906 IgG1 LALA-L309V (L234A/L235A/L309V) (human) (light, as listed by the source, chain 2 of 2): as the sequence (light, as listed by the source, chain 2 of 2) above

[15] = target: ADI-26906 IgG1 LALA-L328A (L234A/L235A/L328A) (human); assay: as above
Sequence of ADI-26906 IgG1 LALA-L328A (L234A/L235A/L328A) (human) (heavy, as listed by the source, chain 1 of 2): as the sequence (heavy, as listed by the source, chain 1 of 2) above
Sequence of ADI-26906 IgG1 LALA-L328A (L234A/L235A/L328A) (human) (light, as listed by the source, chain 2 of 2): as the sequence (light, as listed by the source, chain 2 of 2) above

[16] = target: ADI-26906 IgG1 LALA-P331S (L234A/L235A/P331S) (human); assay: as above
Sequence of ADI-26906 IgG1 LALA-P331S (L234A/L235A/P331S) (human) (heavy, as listed by the source, chain 1 of 2): as the sequence (heavy, as listed by the source, chain 1 of 2) above
Sequence of ADI-26906 IgG1 LALA-P331S (L234A/L235A/P331S) (human) (light, as listed by the source, chain 2 of 2): as the sequence (light, as listed by the source, chain 2 of 2) above

[17] = target: ADI-26906 IgG1 LALA-Y296F (L234A/L235A/Y296F) (human); assay: as above
[18] = target: ADI-26906 IgG1 LALE-A330S (L234A/L235E/A330S) (human); assay: as above
Sequence of ADI-26906 IgG1 LALE-A330S (L234A/L235E/A330S) (human) (heavy, as listed by the source, chain 1 of 2): as the sequence (heavy, as listed by the source, chain 1 of 2) above
Sequence of ADI-26906 IgG1 LALE-A330S (L234A/L235E/A330S) (human) (light, as listed by the source, chain 2 of 2): as the sequence (light, as listed by the source, chain 2 of 2) above

[19] = target: ADI-26906 IgG1 LALE-A330S/P331S (L234A/L235E/A330S/P331S) (human); assay: as above
Sequence of ADI-26906 IgG1 LALE-A330S/P331S (L234A/L235E/A330S/P331S) (human) (heavy, as listed by the source, chain 1 of 2): as the sequence (heavy, as listed by the source, chain 1 of 2) above
Sequence of ADI-26906 IgG1 LALE-A330S/P331S (L234A/L235E/A330S/P331S) (human) (light, as listed by the source, chain 2 of 2): as the sequence (light, as listed by the source, chain 2 of 2) above

[20] = target: ADI-26906 IgG1 LALE-D270A (L234A/L235E/D270A) (human); assay: as above
[21] = target: ADI-26906 IgG1 LALE-H268Q (L234A/L235E/H268Q) (human); assay: as above
[22] = target: ADI-26906 IgG1 LALE-K322A (L234A/L235E/K322A) (human); assay: as above
Sequence of ADI-26906 IgG1 LALE-K322A (L234A/L235E/K322A) (human) (heavy, as listed by the source, chain 1 of 2): as the sequence (heavy, as listed by the source, chain 1 of 2) above
Sequence of ADI-26906 IgG1 LALE-K322A (L234A/L235E/K322A) (human) (light, as listed by the source, chain 2 of 2): as the sequence (light, as listed by the source, chain 2 of 2) above

[23] = target: ADI-26906 IgG1 LALE-L309A (L234A/L235E/L309A) (human); assay: as above
Sequence of ADI-26906 IgG1 LALE-L309A (L234A/L235E/L309A) (human) (heavy, as listed by the source, chain 1 of 2): as the sequence (heavy, as listed by the source, chain 1 of 2) above
Sequence of ADI-26906 IgG1 LALE-L309A (L234A/L235E/L309A) (human) (light, as listed by the source, chain 2 of 2): as the sequence (light, as listed by the source, chain 2 of 2) above

[24] = target: ADI-26906 IgG1 LALE-L309V (L234A/L235E/L309V) (human); assay: as above
[25] = target: ADI-26906 IgG1 LALE-L328A (L234A/L235E/L328A) (human); assay: as above
Sequence of ADI-26906 IgG1 LALE-L328A (L234A/L235E/L328A) (human) (heavy, as listed by the source, chain 1 of 2): as the sequence (heavy, as listed by the source, chain 1 of 2) above
Sequence of ADI-26906 IgG1 LALE-L328A (L234A/L235E/L328A) (human) (light, as listed by the source, chain 2 of 2): as the sequence (light, as listed by the source, chain 2 of 2) above

[26] = target: ADI-26906 IgG1 LALE-P331S (L234A/L235E/P331S) (human); assay: as above
Sequence of ADI-26906 IgG1 LALE-P331S (L234A/L235E/P331S) (human) (heavy, as listed by the source, chain 1 of 2): as the sequence (heavy, as listed by the source, chain 1 of 2) above
Sequence of ADI-26906 IgG1 LALE-P331S (L234A/L235E/P331S) (human) (light, as listed by the source, chain 2 of 2): as the sequence (light, as listed by the source, chain 2 of 2) above

[27] = target: FcγR on THP-1 cells (FcγRI and FcγRII); assay: flow cytometry on cells; THP-1 cells, 100 nM uncomplexed IgG, 30 min on ice, PBSF; goat anti-human IgG R-PE; median fluorescence intensity; remark: listed apart in the source

MFI [1]: 4850 MFI
Substance: ADI-26906 IgG1 LALA-L309V (L234A/L235A/L309V) (antibody)

MFI [1]: 4440 MFI
Substance: ADI-26906 IgG1 LALA-A330S (L234A/L235A/A330S) (antibody)

MFI [2]: 192 MFI
Substance: ADI-26906 IgG1 L235A/G237A (antibody)

MFI [2]: 140 MFI
Substance: ADI-26906 IgG1 L234A/L235K (antibody)

C1q Dynal FACS MFI [3]: 1950 MFI
C1q Dynal FACS MFI [4]: 2280 MFI
Substance: human complement C1q (complex)

MFI [1]: 2320 MFI
Substance: ADI-26906 IgG1 LALE-K322A (L234A/L235E/K322A) (antibody)

MFI [1]: 2760 MFI
Substance: ADI-26906 IgG1 LALE-L309A (L234A/L235E/L309A) (antibody)

MFI [1]: 4000 MFI
Substance: ADI-26906 IgG1 LALE-H268Q (L234A/L235E/H268Q) (antibody)

response (RU) [5]: 23.5 RU
response (RU) [6]: 3.8 RU
response (RU) [7]: 14.3 RU
response (RU) [8]: 19.9 RU
response (RU) [9]: 15.8 RU
response (RU) [10]: 9.7 RU
response (RU) [11]: 22.9 RU
response (RU) [12]: 19.9 RU
response (RU) [13]: 21.6 RU
response (RU) [14]: 25.2 RU
response (RU) [15]: 13.6 RU
response (RU) [16]: 17.7 RU
response (RU) [17]: 19.1 RU
response (RU) [18]: 3.3 RU
response (RU) [19]: 2.6 RU
response (RU) [20]: 1.8 RU
response (RU) [21]: 4.3 RU
response (RU) [22]: 4.6 RU
response (RU) [23]: 4.2 RU
response (RU) [24]: 4.9 RU
response (RU) [25]: 3.5 RU
response (RU) [26]: 3.3 RU
Substance: human FcγRI (CD64) (from UniProt P12314 16-374) (receptor)

MFI [1]: 546 MFI
Substance: ADI-26906 IgG1 LALE-D270A (L234A/L235E/D270A) (antibody)

MFI [1]: 4220 MFI
Substance: ADI-26906 IgG1 LALA-P331S (L234A/L235A/P331S) (antibody)

MFI [2]: 491 MFI
MFI [27]: 270 MFI
MFI [1]: 5270 MFI
Substance: ADI-26906 IgG1 L234A/L235A (antibody)

MFI [1]: 2270 MFI
Substance: ADI-26906 IgG1 LALA-D270A (L234A/L235A/D270A) (antibody)

MFI [2]: 386 MFI
Substance: ADI-26906 IgG1 L234F/L235K (antibody)

MFI [1]: 4800 MFI
Substance: ADI-26906 IgG1 LALA-H268Q (L234A/L235A/H268Q) (antibody)

MFI [2]: 176 MFI
Substance: ADI-26906 IgG1 L234E/L235K (antibody)

MFI [1]: 3540 MFI
Substance: ADI-26906 IgG1 LALE-L309V (L234A/L235E/L309V) (antibody)

MFI [2]: 192 MFI
MFI [27]: 127 MFI
MFI [1]: 5300 MFI
Substance: ADI-26906 IgG1 L234A/L235E (antibody)

MFI [2]: 150 MFI
Substance: ADI-26906 IgG1 L234A/L235A/G237A (antibody)

MFI [1]: 3810 MFI
Substance: ADI-26906 IgG1 LALA-Y296F (L234A/L235A/Y296F) (antibody)

MFI [1]: 3840 MFI
Substance: ADI-26906 IgG1 LALA-A330S/P331S (L234A/L235A/A330S/P331S) (antibody)

MFI [1]: 1390 MFI
Substance: ADI-26906 IgG1 LALE-A330S/P331S (L234A/L235E/A330S/P331S) (antibody)

MFI [1]: 2260 MFI
Substance: ADI-26906 IgG1 LALE-A330S (L234A/L235E/A330S) (antibody)

MFI [1]: 7040 MFI
Substance: ADI-26906 IgG1 LALE-L328A (L234A/L235E/L328A) (antibody)

MFI [1]: 4790 MFI
Substance: ADI-26906 IgG1 LALA-L309A (L234A/L235A/L309A) (antibody)

MFI [1]: 4390 MFI
Substance: ADI-26906 IgG1 LALA-K322A (L234A/L235A/K322A) (antibody)

MFI [1]: 7010 MFI
Substance: ADI-26906 IgG1 LALA-A327G (L234A/L235A/A327G) (antibody)

MFI [2]: 184 MFI
Substance: ADI-26906 IgG1 L234A/G237A (antibody)

MFI [2]: 369 MFI
Substance: ADI-26906 IgG1 L234F/L235E (antibody)

MFI [1]: 1760 MFI
Substance: ADI-26906 IgG1 LALE-P331S (L234A/L235E/P331S) (antibody)

MFI [1]: 6420 MFI
Substance: ADI-26906 IgG1 LALA-L328A (L234A/L235A/L328A) (antibody)

From publication PMC10526015
